{
  "source": "FireProtDB (doi:10.1093/protein/11.3.213)",
  "conditions": "Escherichia phage lambda; pH 6.6; 25 °C; Thermal; Fluorescence; phosphate 0.1 M; reversible: yes; whole UniProt chain shown",
  "data": [
    {"protein": "Endolysin wild type, P03706 (protein) MVEINNQRKAFLDMLAWSEGTDNGRQKTRNHGYDVIVGGELFTDYSDHPRKLVTLNPKLKSTGAGRYQLLSRWWDAYRKQLGLKDFSPKSQDAVALQQIKERGALPMIDRGDIRQAIDRCSNIWASLPGAGYGQFEHKADSLIAKFKEAGGTVREIDV", "values": [
      {"measurement": "unfolding free energy", "result": 3.54, "unit": "kcal/mol"}
    ]}
  ]
}
